# From patent publication US20230192818A1
# Several values for one entry are separate records, joined by “and”; a condition that tells them apart may be missing. Identical values can stand only once.
# Tests used:
# FCGR 3a (V 176) = FCGR 3a (V 176) (UniProt P08637)
# FCGR 2b/c = FCGR 2b/c (UniProt P31994)
# FcRn = FcRn (UniProt P55899)
# FCGR 3a (F 176) = FCGR 3a (F 176) (UniProt P08637)
# FCGR 2a (H 167) = FCGR 2a (H 167) (UniProt P12318)
# FCGR1 = FCGR1 (UniProt P12314)
# Chain of FCGR1 (P12314 16-288 limits assumed): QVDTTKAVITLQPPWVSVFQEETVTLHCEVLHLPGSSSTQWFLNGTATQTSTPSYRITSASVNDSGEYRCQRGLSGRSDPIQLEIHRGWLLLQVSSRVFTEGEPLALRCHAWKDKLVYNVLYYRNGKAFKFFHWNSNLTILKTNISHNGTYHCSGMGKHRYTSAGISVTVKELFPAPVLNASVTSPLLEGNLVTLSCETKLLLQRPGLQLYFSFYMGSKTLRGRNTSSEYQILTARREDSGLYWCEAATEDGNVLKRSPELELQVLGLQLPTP
# Chain of FCGR 3a (F 176) (P08637 17-208 limits assumed): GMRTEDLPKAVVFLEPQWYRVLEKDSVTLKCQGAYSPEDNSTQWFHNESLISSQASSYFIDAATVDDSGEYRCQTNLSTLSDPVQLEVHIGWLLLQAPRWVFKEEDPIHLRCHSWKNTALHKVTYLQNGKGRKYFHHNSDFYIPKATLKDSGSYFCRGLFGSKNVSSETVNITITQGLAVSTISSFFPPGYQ
# Chain of FCGR 3a (V 176) (P08637 17-208 F176V limits assumed): as the sequence (P08637 17-208 limits assumed) above, with F160V counted along it
# Chain of FcRn (P55899 24-297 limits assumed, chain 1 of 2): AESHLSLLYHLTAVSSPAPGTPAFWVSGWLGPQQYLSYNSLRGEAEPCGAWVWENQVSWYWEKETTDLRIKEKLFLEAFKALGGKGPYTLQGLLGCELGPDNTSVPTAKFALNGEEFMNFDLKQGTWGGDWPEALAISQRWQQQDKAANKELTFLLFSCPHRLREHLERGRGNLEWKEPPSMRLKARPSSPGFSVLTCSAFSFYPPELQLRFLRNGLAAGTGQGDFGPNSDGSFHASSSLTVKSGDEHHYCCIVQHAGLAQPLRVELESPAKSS
# Chain of FcRn (P61769 21-119 limits assumed, chain 2 of 2, further chain): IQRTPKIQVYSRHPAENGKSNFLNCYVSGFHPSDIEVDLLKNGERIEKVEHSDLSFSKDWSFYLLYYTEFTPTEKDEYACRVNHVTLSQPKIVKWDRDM
# Chain of FCGR 2b/c (P31994 46-217 limits assumed): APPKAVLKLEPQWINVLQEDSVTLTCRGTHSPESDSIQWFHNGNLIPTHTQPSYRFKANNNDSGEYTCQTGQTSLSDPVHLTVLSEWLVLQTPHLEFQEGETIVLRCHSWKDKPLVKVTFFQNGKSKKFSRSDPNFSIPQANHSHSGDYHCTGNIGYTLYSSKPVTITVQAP
substance,measurement,setting,value
human IgG1 isotype control (antibody),Kd,FCGR 3a (V 176),161 nM and 210 nM
same,Kd,FCGR 2b/c,1360 nM and 1590 nM
same,Kd,FcRn,81.1 nM and 86.5 nM
same,Kd,FCGR 3a (F 176),1110 nM and 796 nM
same,Kd,FCGR 2a (H 167),462 nM and 537 nM
same,Kd,FCGR1,0.46 nM
same,koff,FCGR1,0.000245 s⁻¹
